Source: PMC12808825, “Structural and functional modulation of human kynurenine aminotransferase I enhances selenium-driven redox metabolism for cancer therapy” (Redox Biology, 2025)

Molecular target: the molecule itself
Test: SEC; size-exclusion chromatography after elution from the His Trap Nickel column; estimated apparent molecular weight 113 kDa

B1: Human kynurenine aminotransferase 1 (hKYAT1), wild-type, recombinant (enzyme)
chain: MAKQLQARRLDGIDYNPWVEFVKLASEHDVVNLGQGFPDFPPPDFAVEAFQHAVSGDFMLNQYTKTFGYPPLTKILASFFGELLGQEIDPLRNVLVTVGGYGALFTAFQALVDEGDEVIIIEPFFDCYEPMTMMAGGRPVFVSLKPGPIQNGELGSSSNWQLDPMELAGKFTSRTKALVLNTPNNPLGKVFSREELELVASLCQQHDVVCITDEVYQWMVYDGHQHISIASLPGMWERTLTIGSAGKTFSATGWKVGWVLGPDHIMKHLRTVHQNSVFHCPTQSQAAVAESFEREQLLFRQPSSYFVQFPQAMQRCRDHMIRSLQSVGLKPIIPQGSYFLITDISDFKRKMPDLPGAVDEPYDRRFVKWMIKNKGLVAIPVSIFYSVPHQKHFDHYIRFCFVKDEATLQAMDEKLRKWKVEL
notes: human kynurenine aminotransferase 1 (KYAT1), wild type; The PDB entries are cited crystal structures of human KYAT1, not necessarily of this construct; also called KAT1; cysteine-S-conjugate beta-lyase 1; source: E. coli BL21, purified (His Trap Nickel column, size-exclusion chromatography)
With B1 the “stoichiometry N” value was 2.
